Drawing on patent US20170334973A1, this text covers EC50 for 1 substance.

In experiment [1] the target is BDBV GP (Bundibugyo virus (BDBV)). Put plainly: ELISA, purified mAb.
For experiment [2] the target is unchanged. The experiment in a line: GP ELISA, purified mAb.

Sequence of FVM09 (antibody) (VH): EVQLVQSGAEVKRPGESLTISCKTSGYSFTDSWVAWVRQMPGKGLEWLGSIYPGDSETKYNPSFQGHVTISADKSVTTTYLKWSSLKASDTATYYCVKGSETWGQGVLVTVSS
Sequence of FVM09 (antibody) (V domain): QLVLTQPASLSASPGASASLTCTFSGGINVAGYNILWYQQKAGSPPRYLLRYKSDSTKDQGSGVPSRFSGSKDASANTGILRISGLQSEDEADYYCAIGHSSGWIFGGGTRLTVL

As to FVM09 (antibody), the EC50 in experiment [1] is under 0.015 µg/mL; in experiment [2], 0.02 µg/mL.
